# From US20170037149A1 (Amgen, published 2017)
# Molecular target: T1, human FLT3 (human, UniProt P36888 27-993)
# T1 construct: On transfected CHO cells, or on the FLT3 positive human AML cell lines EOL-1 / MV4-11 where the row says so; also called hu FLT3; full length human FLT3
# Test: FACS, scFv on CHO-human FLT3 pre-incubated with FLT3 ligand (competitor)
# Experimental: The detection was performed using mouse anti-FLAG+PE-conjugated goat anti-mouse and the Fluorescence median detected by FACS (median (+ligand)/median (w/o ligand)*100%)
# Afterwards cells were not washed but directly stained with FLT3 binder (scFv's). […] As negative control, cells were incubated with an unspecific scFv instead of FLT3 scFv.
# For the evaluation of the data, the fluorescence median was detected by FACS.
row,median [+ligand]/median [w/o ligand]*100 [%],Binder
1,≥ 75,"FL-26 scFv (scFv, periplasmic prep) scFv: QVTLKESGPVLVKPTETLTLTCTVSGFSFRNARMGVSWIRQPPGKALEWLAHIFSNDEKSYSTSLKSRLTISKDTSKSQVVLTLTNMDPVDTATYFCARMPEYSSGWSGAFDIWGQGTMVTVSSGGGGSGGGGSGGGGSDIQMTQSPSSLSASVGDRVTITCRASQGIRNDLVWYQQKPGKAPKRLIYGTSTLQSGVPSRFSGSGSGTEFTLTISSLQPEDFATYYCLQHNSYPLTFGGGTKVEIK"
2,≥ 75,"FL-24 scFv (scFv, periplasmic prep) scFv: QVTLKESGPALVKPTETLTLTCTVSGFSLRNVRMGVSWIRQPPGKALEWLAHIFSNDEKSYSTSLKSRLTISKDTSKSQVVLILTNMDPVDTATYFCARMPEYSSGWSGAFDIWGQGTMVTVSSGGGGSGGGGSGGGGSDIQMTQSPSSLSASVGDRVTITCRASQDIRDDLVWYQQKPGKAPKRLIYAASTLQSGVPSRFSGSGSGTEFTLTISSLQPEDFATYYCLQHHSYPWTFGQGTKVEIK"
3,≥ 75,"FL-59 scFv (scFv, periplasmic prep) scFv: QVTLKESGPMLVKPTETLTLTCTVSGFSLRNVRMGVSWIRQPPGKALEWLAHIFSNDEKSYSTSLKSRLTISKDTSKSQVVLTLTNMDPVDTATYFCARMPEYSSGWSGAFDIWGQGTMVTVSSGGGGSGGGGSGGGGSDIQMTQSPSSLSASVGDRVTITCRASQDIRDDLGWYQQKPGNAPKRLIYGASTLQSGVPSRFSGSGSGTEFTLTISSLQPEDFATYYCLQHNSYPLTFGGGTRLEIK"
4,≥ 75,"FL-28 scFv (scFv, periplasmic prep) scFv: QVTLKESGPVLVKPTETLTLTCTVSGFSFRNARMGVSWIRQPPGKALEWLAHIFSNDEKSYSTSLKSRLTISKDTSKSQVVLTLTNMDPVDTATYFCARMPEYSSGWSGAFDIWGQGTMVTVSSGGGGSGGGGSGGGGSDIQMTQSPSSLSASVGDRVTITCRASQGIGDDLGWYQQIPGKAPKRLIYATSVLQSGVPSRFSGSGSGTEFTLTISSLQPEDFATYYCLQHNSYPLTFGGGTKVEIK"
5,≥ 75,"FL-38 scFv (scFv, periplasmic prep) scFv: QVTLKESGPVLVKPTETLTLTCTVSGFSFRNARMGVSWIRQPPGKALEWLAHIFSNDEKSYSTSLKSRLTISKDTSKSQVVLTLTNMDPVDTATYFCARMPEYSSGWSGAFDIWGQGTLVTVSSGGGGSGGGGSGGGGSDIQMTQSPSSLSASVGDRVTITCRASQGIRNDLGWYQQKPGKAPKRLIYAASSLQSGVPSRFSGSGSGTEFTLTISSLQPEDFATYYCLQHNSYPLTFGGGTKLEIK"
6,≥ 75,"FL-37 scFv (scFv, periplasmic prep) scFv: QVTLKESGPVLVKPTETLTLTCTVSGFSLRNIKMGVSWIRQPPGKALEWLAHIFSNDEKSYSTSLKSRLTISKDTSKSQVVLTLTNMDPVDTATYFCARMPEYSSGWSGAFDIWGQGTMVTVSSGGGGSGGGGSGGGGSDIQMTQSPSSLSASVGDRVTITCRASQDISNYLAWYQQKPGKAPKRLIYAASSLQSGVPSRFSGSGSGTEFTLTISSLQPEDFATYYCLQHNSFPLTFGGGTKLEIK"
7,≥ 75,"FL-27 scFv (scFv, periplasmic prep) scFv: QVTLKESGPVLVKPTETLTLTCTVSGFSFRNARMGVSWIRQPPGKALEWLAHIFSNDEKSYSTSLKSRLTISKDTSKSQVVLTLTNMDPVDTATYFCARMPEYSSGWSGAFDIWGQGTMVTVSSGGGGSGGGGSGGGGSDIQMTQSPSSLSASVGDRVTITCRTSQGIRNDLVWYQQKPGKAPKRLIYAASTLQSGVPSRFSGSGSGTEFTLTISSLQPEDFATYFCLQHYSYPLTFGGGTKVEIK"
8,≥ 75,"FL-44 scFv (scFv, periplasmic prep) scFv: QVTLKESGPVLVKPTETLTLTCTVSGFSFRNARMGVSWIRQPPGKCLEWLAHIFSNDEKSYSTSLKSRLTISKDTSKSQVVLTLTNMDPVDTATYFCARMPEYSSGWSGAFDIWGQGTMVTVSSGGGGSGGGGSGGGGSDIQMTQSPSSLSASVGDRVTITCRTSQGIRNDLVWYQQKPGKAPKRLIYAASTLQSGVPSRFSGSGSGTEFTLTISSLQPEDFATYFCLQHYSYPLTFGCGTKVEIK"
9,≥ 75,"FL-52 scFv (scFv, periplasmic prep) scFv: QVTLKESGPTLVKPTETLTLTCTFSGFSLRYARMGVSWIRQPPGKCLEWLAHIFSNDEKSYSTSLKSRLTISKDTSKSQVVLTLTNMDPVDTATYFCARMPEYSSGWSGAFDIWGQGTMVTVSSGGGGSGGGGSGGGGSDIQMTQSPSSLSASVGDRVTITCRASQDIRNDLAWYQQKPGKAPKRLIYAASSLQSGVPSRFSGSGSGTEFTLTISSLQPEDFATYYCLQHNSYPLTFGCGTKLEIK"
10,≥ 75,"FL-23 scFv (scFv, periplasmic prep) scFv: QVTLKESGPALVKPTETLTLTCTVSGFSFRNARMGVSWIRQPPGKALEWLAHIFSNDEKSYSTSLKSRLTISKDTSKSQVVLTLTNMDPVDTATYFCARMPEYSSGWSGAFDIWGQGTMVTVSSGGGGSGGGGSGGGGSDIQMTQSPSSLSASVGDRVTITCRASQDIGYDLGWYQQKPGKAPKRLIYAASTLQSGVPSRFSGSGSGTEFTLIISSLQPEDFATYYCLQHNSFPWTFGQGTKVEIK"
11,≥ 75,"FL-25 scFv (scFv, periplasmic prep) scFv: QVTLKESGPALVKPTETLTLTCTVSGFSFRNARMGVSWIRQPPGKALEWLAHIFSNDEKSYSTSLKSRLTISKDTSKSQVVLTLTNMDPVDTATYFCARMPEYSSGWSGAFDIWGQGTMVTVSSGGGGSGGGGSGGGGSDIQMTQSPSSLSASVGDRVTITCRASQDIRDDLGWYQQKPGKAPKRLIYAASTLQSGVPSRFTGGGSGTEFTLTISSLQPEDFATYYCLQHNSFPFTFGGGTKVEIK"
12,≥ 75,"FL-36 scFv (scFv, periplasmic prep) scFv: QVTLKESGPTLVKPTETLTLTCTFSGFSLRYARMGVSWIRQPPGKALEWLAHIFSNDEKSYSTSLKSRLTISKDTSKSQVVLTLTNMDPVDTATYFCARMPEYSSGWSGAFDIWGQGTMVTVSSGGGGSGGGGSGGGGSDIQMTQSPSSLSASVGDRVTITCRASQDIRNDLAWYQQKPGKAPKRLIYAASSLQSGVPSRFSGSGSGTEFTLTISSLQPEDFATYYCLQHNSYPLTFGGGTKLEIK"
13,≥ 75,"FL-22 scFv (scFv, periplasmic prep) scFv: QVTLKESGPVLVKPTETLTLTCTVSGFSFRNARMGVSWIRQPPGKALEWLAHIFSNDEKSYSTSLKSRLTISKDTSKSQVVLTLTNMDPVDTATYFCARMPEYSSGWSGAFDIWGQGTMVTVSSGGGGSGGGGSGGGGSDIQMTQSPSSLSASVGDRVTITCRASQGISNYLAWYQQKPGKAPKRLIYAASTLQSGVPSRFSGSGSGTEFTLTISSLQPEDFATYYCLQHNTYPWTFGQGTKVEIK"
14,≥ 75,"FL-43 scFv (scFv, periplasmic prep) scFv: QVTLKESGPVLVKPTETLTLTCTVSGFSFRNARMGVSWIRQPPGKCLEWLAHIFSNDEKSYSTSLKSRLTISKDTSKSQVVLTLTNMDPVDTATYFCARMPEYSSGWSGAFDIWGQGTMVTVSSGGGGSGGGGSGGGGSDIQMTQSPSSLSASVGDRVTITCRASQGIRNDLVWYQQKPGKAPKRLIYGTSTLQSGVPSRFSGSGSGTEFTLTISSLQPEDFATYYCLQHNSYPLTFGCGTKVEIK"
15,≥ 75,"FL-10 scFv (scFv, periplasmic prep) scFv: QVTLKESGPVLVKPTETLTLTCTVSGFSFRNARMGVSWIRQPPGKALEWLAHIFSNDEKSYSTSLKSRLTISKDTSKSQVVLTLTNMDPVDTATYFCARMPEYSSGWSGAFDIWGQGTMVTVSSGGGGSGGGGSGGGGSDIQMTQSPSSLSASVGDRVTITCRASQDIRDDLGWYQQKPGNAPKRLIYGASTLQSGVPSRFSGSGSGTEFTLTISSLQPEDFATYYCLQHNSYPLTFGGGTKVDIK"
16,≥ 75,"FL-14 scFv (scFv, periplasmic prep) scFv: QVTLKESGPALVKPTETLTLTCTLSGFSLNNARMAVSWIRQPPGKTLEWLAHIFSNDEKSYSTSLKSRLTISKDTSKGQVVLTMTNMDPVDTATYYCARIVGYGSGWYGYFDYWGQGTLVTVSSGGGGSGGGGSGGGGSDIQMTQSPSSLSASVGDRVTITCRASQDIRNDLGWYQQKPGKAPKRLIYAASTLQSGVPSRFSGSGSGTEFTLTISSLQPEDFATYYCLQHNSYPLTFGGGTKVEIK"
17,≥ 75,"FL-4 scFv (scFv, periplasmic prep) scFv: QVTLKESGPALVKPTETLTLTCTLSGFSLNNAKMGVSWIRQPPGKALEWLAHIFSNDEKSYSTSLKSRLTISKDTSKGQVVLTMTNMDPVDTATYYCARIVGYGSGWYGYFDYWGQGTLVTVSSGGGGSGGGGSGGGGSDIQMTQSPSSLSASVGDRVTITCRASQDIRDDLGWYQQKPGNAPKRLIYGASTLQSGVPSRFSGSGSGTEFTLTISSLQPEDFATYYCLQHNSYPLTFGGGTKVDIK"
18,≥ 75,"FL-11 scFv (scFv, periplasmic prep) scFv: QVTLKESGPVLVKPTETLTLTCTLSGFSLNNAKMGVSWIRQPPGKALEWLAQIFSNGEKSYSTSLKSRLTISKDTSKGQVVLTMTNMDPVDTATYYCSRIVGYGSGWYGYFDYWGQGTLVTVSSGGGGSGGGGSGGGGSDIQMTQSPSSLSASVGDRVTITCRASQGIRNDLGWYQQKPGKAPKRLIYGASTLQSGVPSRFSGSGSGTEFTLTISSLQPEDFATYYCLQHNSYPLTFGGGTKVEIK"
19,≥ 75,"FL-12 scFv (scFv, periplasmic prep) scFv: QVTLKESGPALVKPTETLTLTCTVSGFSLSNARMGVSWIRQPPGKALEWLANIFSNDEKSYSTSLKSRLTISKGTSKSQVVLTMTNMDPEDTATYYCARIVGYGSGWYGYFDYWGQGTLVTVSSGGGGSGGGGSGGGGSDIQMTQSPSSLSASVGDRVTITCRASQGIRNDLGWYQQKPGKAPQRLIYAASSLQSGVPSRFSGSGSGTEFTLTISSLQPEDFATYYCLQHNSYPLTFGGGTKVEIK"
20,≥ 75,"FL-6 scFv (scFv, periplasmic prep) scFv: QVTLKESGPTLVKPTETLTLTCTLSGFSLNNARMAVSWIRQPPGKTLEWLAHIFSNDEKSYSPSLKSRLTISKDTSKSQVVLTMTNMDPEDTATYYCARIVGYGTGWYGFFDYWGQGILVTVSSGGGGSGGGGSGGGGSDIQMTQSPSSLSASVGDRVTITCRASQGIRNDLGWFQQKPGKAPKRLIYAASVLQSGVPSRFSGSGSGTEFTLTISSLQPEDFATYYCLQHNSYPLTFGGGTKVDIK"
